# Reference: US20240325557A1, “TREATMENT OF CANCER” (INNATE PHARMA, priority 2020, published 2024)
# Read-outs that look alike come from different tables or passages of the source.
# Legend:
# SUM190 cells [1] = experiment: In vivo efficacy of ADCs, SUM190 mouse model of human breast cancer (Example 9); details: single i.v. injection 3 mg/kg; antibodies conjugated to ggfg-Dxd, DAR=8
# Experimental: When tumors reached a volume between 195 and 250 mm3, mice were randomized into groups of 9 mice for intravenous treatment with a single injection of 3 mg/kg of camptothecin ADCs. Tumor growth were followed twice a week. Kaplan Meier survival curves were established by using GraphPad Prism V7 software according to the following criteria: When the tumor volume reached 1500 mm3, mice were euthanized and considered dead on the day of sacrifice (D).
# SUM190 cells [2] = experiment: In vitro ADC cytotoxicity, 5 days, CTG; format: cell-based, human; details: antibodies conjugated to ggfg-Dxd or PEG (8U)-Val-Ala-PAB-Exatecan, DAR=8
# Experimental: We assessed the ability of the 5E7 antibody (mAb6) conjugated with camptothecin analogues (Dxd or Exatecan) to kill SUM190 cells. […] A first ADC was prepared in which antibodies were conjugated at 8 toxins per antibody (DAR=8) to a camptothecin analogue (Dxd) via a linker comprising an intracellularly cleavable tetrapeptide linker (GGFG) having the structure shown below, referred to as ggfg-Dxd:
# A second ADC was prepared in which antibodies were conjugated at 8 toxins per antibody (DAR=8) to another camptothecin analogue (exatecan) via the cleavable linker having the structure below, referred to as PEG (8U)-Val-Ala-PAB-Exatecan:
# Luminescence vs. Ab concentration was plotted on graph.
# For each ADC, a concentration range of ADC was incubated with nectin-4-expressing cells. After incubation, CTG substrate was added at 1/1 ratio and the luminescent signal was read with a plate reader (Enspire). It allowed quantifying the ATP present (indicator of metabolically active cells) which was proportional to cell viability.
# Nectin-4 on SUM185 cells = biological target: T1, Nectin-4 on SUM185 cells (Homo sapiens, UniProt Q96NY8); experiment: Flow cytometry titration on SUM185 cells; format: binding; details: cells detached with trypsin
# T1 construct: host or cells: SUM185
# T1 sequence (Q96NY8 32-510): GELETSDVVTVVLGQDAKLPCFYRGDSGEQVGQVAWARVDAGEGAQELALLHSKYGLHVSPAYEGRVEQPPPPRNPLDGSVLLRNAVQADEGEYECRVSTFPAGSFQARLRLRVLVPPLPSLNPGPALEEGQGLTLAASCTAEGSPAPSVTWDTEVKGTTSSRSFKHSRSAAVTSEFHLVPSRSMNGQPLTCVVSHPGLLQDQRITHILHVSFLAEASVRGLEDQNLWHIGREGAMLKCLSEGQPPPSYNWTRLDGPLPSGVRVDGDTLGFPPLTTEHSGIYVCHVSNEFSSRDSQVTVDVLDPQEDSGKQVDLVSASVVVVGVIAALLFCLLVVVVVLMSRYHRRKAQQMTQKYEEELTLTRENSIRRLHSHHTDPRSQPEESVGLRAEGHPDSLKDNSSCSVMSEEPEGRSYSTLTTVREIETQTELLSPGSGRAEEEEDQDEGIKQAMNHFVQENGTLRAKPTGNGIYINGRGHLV
# Experimental: In this experiment, the ability of anti-Nectin-4 Abs to bind to Nectin-4 on SUM185 cells (expressing relatively high levels of Nectin-4) was assessed by flow cytometry. […] Briefly, SUM185 cells were detached from the flask with trypsin (37° C. for 5 min) and then washed once with media. 50 000 cells were incubated with a concentration range of test antibodies starting from 20 μg/ml (8 points, dilution factor 4) for 30 minutes at 4° C. […] Cells were washed twice with ice-cold SB. Acquisition was done on a flow cytometer.
# rat Nectin-4 = experiment: Flow cytometry species cross-reactivity on CHO cells; format: binding
# rat Nectin-4, sequence (as listed by the source): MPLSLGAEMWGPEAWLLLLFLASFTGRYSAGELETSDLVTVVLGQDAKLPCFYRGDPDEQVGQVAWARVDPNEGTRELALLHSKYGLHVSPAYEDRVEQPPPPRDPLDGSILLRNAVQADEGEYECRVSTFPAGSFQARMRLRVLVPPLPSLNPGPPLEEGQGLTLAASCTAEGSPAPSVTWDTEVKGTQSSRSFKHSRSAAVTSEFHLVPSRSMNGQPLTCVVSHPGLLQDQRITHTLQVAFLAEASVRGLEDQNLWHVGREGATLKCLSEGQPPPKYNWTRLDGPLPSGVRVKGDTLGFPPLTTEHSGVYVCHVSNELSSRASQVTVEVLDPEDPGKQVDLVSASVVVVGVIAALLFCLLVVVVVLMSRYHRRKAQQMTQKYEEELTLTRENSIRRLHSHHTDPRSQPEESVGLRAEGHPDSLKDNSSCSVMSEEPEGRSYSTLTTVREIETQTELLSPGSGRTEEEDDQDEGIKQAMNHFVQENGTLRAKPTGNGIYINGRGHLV
# Experimental: Anti-Nectin-4 antibodies were tested by flow cytometry for binding to different CHO cell lines made to express respectively the mouse, cynomolgus and rat Nectin-4 protein (including an N-terminal V5 tag not shown in the sequences below).
# SUM185 cells = experiment: Fab-ZAP internalization assay (CTG cell viability); format: cell-based, human
# Experimental: (§1) The ability of the anti-Nectin-4 antibodies to induce nectin-4 internalization was assessed on SUM190 cell lines expressing lower levels of nectin-4 and in SUM185 cells expressing higher levels of Nectin-4. The internalization was indirectly determined by using the Fab-ZAP human Internalization Kit (Advanced Targeting Systems) to allow the anti-Nectin-4 antibodies to target and eliminate Nectin-4 expressing cells, with measurement of cell viability using the CTG substrate (CellTiter-Glo® Luminescent Cell Viability Assay (Promega). Fab-ZAP is a chemical conjugate of goat anti-human monovalent antibody and the ribosome-inactivating protein, saporin. The antibodies used are affinity-purified polyclonal antibodies against both the heavy and light chain of human IgG. This secondary conjugate is used to evaluate the potential of a primary antibody to internalize.
# (§2) Briefly, a concentration range of the anti-Nectin-4 antibodies or the controls were incubated with SUM190 or SUM185 cells. After 45-minute incubation at 4° C., the non-bound antibodies were washed away and Fab-ZAP was added on top of the cells. The newly formed complexes (anti-nectin-4 antibody+Fab-ZAP) internalized into the cells where the Saporin was released and stopped the protein synthesis leading to cell death. The internalization capability of the antibody was indirectly determined by the cell's viability: the more efficient was the cell killing; the better was the internalization capability of the antibody.
# SUM190 cells [3] = experiment: Fab-ZAP internalization assay (CTG cell viability); format: cell-based, human
# Experimental: as §1, §2
Molecule,control of tumor growth (SUM190 cells [1]),killing of SUM190 cells (cell viability) (SUM190 cells [2]),binding profile on SUM185 cells (Nectin-4 on SUM185 cells),binding to rat Nectin-4 expressing CHO cells (rat Nectin-4),binding to rat Nectin-4 expressing CHO cells (rat Nectin-4; listed as mAb6),induction of internalization (SUM185 cells),induction of internalization (SUM190 cells [3]),binding to rat Nectin-4 expressing CHO cells (rat Nectin-4; listed as mAb7)
"N41 (antibody, V domains shown) VH: QVQLKQSGPGLVQPSQSLSITCTVSGFSLTNYGVHWVRQSPGKGLEWLGVIWSGGSTDYNAAFISRLSISKDTSKSQVFFKMNSLQADDTAIYYCARELIHAMDNWGQGTSVTVSS VL: DIQMTQSPASLSVSVGETVTITCRASENIYSNLAWYQQKQGNSPQLLVFAATNLADGVPSRFSGSGSGTQYSLKINSLQSEDFGTYYCQHFWGTPTFGGGTKLEIK",no longer showed the ability to control tumor growth,,,,,,,
"5E7 (antibody, V domains shown) VH: QVQLQQPGAELVKPGASVKLSCKASGYIFTSYWMHWVKQRPGQGLEWIGEIDPSDSYTNYNQKFKGKATLTLDKSSSTTYMQLSSLTSEDSAVYYCVRGYGNYGDYWGQGTTLTVSS VL: DVVMTQAAFSNPVTLGTSASISCRSSKSLLHSNGITYLYWYLQKPGQSPQLLIYQMSNLASGVPDRFSSSGSGTDFTLRISRVEAEDVGVYYCAQNLELPWTFGGGTKLEIK",strong ability to prevent tumor growth,more potent that mAb3 conjugated to camptothecin analogue,lower plateau for binding to the SUM185 cells,showed binding to rat Nectin 4 expressing cells,bind to rat Nectin-4,more efficient than enfortumab in inducing internalization,as efficient as the enfortumab in inducing internalization,
"10B12: anti-Nectin-4 antibody, VH SEQ ID NO: 24, VL SEQ ID NO: 25, binds junction of domain C1 and V (antibody, listed as Mus musculus, V domains shown) VH: QVQLQQPGAELVKPGASVKLSCKASGYTFTSYWMHWVKQRPGQGLEWIGEIDPSDSYTNYNQKFKGKATLTVDKSSSTAYMQLSSLTSEDSAVYYCVRGYGNYGDYWGQGTTLTVSS VL: DIVMTQAAFSNPVTLGTSASISCRSSKSLLHSNGITYLYWYLQKPGQSPQLLIYQMSNLASGVPDRFSSSGSGTDFTLRISRVEAEDVGVYYCAQNLELPWTFGGGTKLEIK",,,lower plateau for binding to the SUM185 cells,showed binding to rat Nectin 4 expressing cells,,,as efficient as the enfortumab in inducing internalization,bind to rat Nectin-4
